Measured values as given in the PETadex activity labels (doi:10.1007/s00253-014-5672-0).

Tests used:
[1] = Melting temperature [CD spectroscopy]; conditions: pH 8.5; part of the chain shown
[2] = substrate: pNPB; assay: Proxy for plastic degradation [Residual activity]; conditions: pH 8, part of the chain shown

B1: unnamed (protein)
chain: ANPYERGPNPTDALLEARSGPFSVSEENVSRLSASGFGGGTIYYPRENNTYGAVAISPGYTGTEASIAWLGERIASHGFVVITIDTITTLDQPDSRAEQLNAALNHMINRASSTVRSRIDSSRLAVMGHSMGGGGSLRLASQRPDLKAAIPLTPWHLNKNWSSVTVPTLIIGADLDTIAPVATHAKPFYNSLPSSISKAYLELDGATHFAPNIPNKIIGKYSVAWLKRFVDNDTRYTQFLCPGPRDGLFGEVEEYRSTCPF
For B1, the Melting temperature [1] was 70 °C.

B2: unnamed (protein)
chain: ANPYERGPNPTDALLEARSGPFSVSEENVSRLSASGFGGGTIYYPRENNTYGAVAISPGYTGTEASIAWLGERIASHGFVVITIDTITTLDQPDSRAEQLNAALNHMINRASSTVRSRIDSSRLAVMGHSMGGGGSLRLASQRPDLKAAIPLTPWHLNKNWSSVTVPTLIIGADLDTIAPVATHAKPFYNSLPSSISKAYLELDGATHFAPNIPNKIIGKYSVAWLKRFVDNDTRYTQFLCPGPRDGLFGEVEEYRSTCPFY
In the case of B2, the “Proxy for plastic degradation” value ([2]; 25 °C) is reported as 100%, the “Proxy for plastic degradation” value ([2]; 30.7 °C) is reported as 110% and the “Proxy for plastic degradation” value ([2]; 40.2 °C) is reported as 95%. For the same protein, the “Proxy for plastic degradation” value ([2]; 50.6 °C) was 115%, the “Proxy for plastic degradation” value ([2]; 54.9 °C) was 85% and the “Proxy for plastic degradation” value ([2]; 59.5 °C) was 65%. For the same protein, the “Proxy for plastic degradation” value ([2]; 65.6 °C) was 2%, the “Proxy for plastic degradation” value ([2]; 68.6 °C) was 1% and the “Proxy for plastic degradation” value ([2]; 74.8 °C) was 0%. The “Proxy for plastic degradation” value ([2]; 78.8 °C) was 0%.
